A word on the stoichiometry N: it is a count of units in the complex or per binding partner.

For one molecule, stoichiometry N and Ki results are on record in PMC1298937, “A Novel Endogenous Inhibitor of the Secreted Streptococcal NAD-Glycohydrolase” (PLoS Pathogens, 2005).

The target of assay [1] is 6X-His-tagged SPN (SPN-H) expressed from pMAM3.18 (Streptococcus pyogenes strain JRS4). The assay can be described thus: SEC + other: densitometry of SDS-PAGE; SPN-IFS complex assembled in vivo and purified from the cytoplasm of E. coli TOP10(pMAM3.18); Superdex 75 HR 10/30, 20 mM Tris pH 8.5, 100 mM NaCl; peak fractions on Coomassie-stained SDS-PAGE compared with known concentrations of purified SPN and IFS.

The target of assay [2] is T1, SPN secreted by S. pyogenes JRS4 (culture supernatant) (Streptococcus pyogenes strain JRS4 …).
T1 chain: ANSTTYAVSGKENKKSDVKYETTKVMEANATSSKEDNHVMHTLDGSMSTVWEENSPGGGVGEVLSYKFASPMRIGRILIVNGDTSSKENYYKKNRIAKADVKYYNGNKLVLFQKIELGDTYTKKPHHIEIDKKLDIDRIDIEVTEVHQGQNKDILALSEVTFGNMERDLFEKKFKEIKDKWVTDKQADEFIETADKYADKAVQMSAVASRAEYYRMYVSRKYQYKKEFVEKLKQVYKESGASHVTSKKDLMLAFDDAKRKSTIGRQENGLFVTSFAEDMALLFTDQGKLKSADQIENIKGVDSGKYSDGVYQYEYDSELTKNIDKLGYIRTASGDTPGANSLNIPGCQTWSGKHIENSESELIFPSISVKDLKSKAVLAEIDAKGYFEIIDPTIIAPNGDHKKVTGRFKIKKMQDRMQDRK
As to the kind of experiment: enzyme inhibition kinetics (competitive model); apparent constant; purified IFS (up to 2.3 nM) with SPN from JRS4 culture supernatant (0.125 U/ml) and varying beta-NAD+ (up to 1.2 mM) in PBS at 37 C; fluorescence of residual beta-NAD+; simultaneous fit. The settings on record: one partner purified.

B1: Immunity factor for SPN (IFS) with C-terminal c-myc and 6X-His tags (IFS-H), expressed from pMAM3.19 (natural protein)
chain: MYKVPKGLEHYQKMFQKEVTVNDLKKYLIGSDKEYRITRRDSYMGDISDPEVILEYGVYPAFIKGYTQLKANIEEALLEMSNSGQALDIYQAVQTLNAENMLLNYYESLPFYLNRQSILANITKALKDAHIREAMAHYKLGEFAHYQDTMLDMVERTIETF
notes: source: E. coli TOP10(pMAM3.19), arabinose-induced: cytoplasmic extract; purified (TALON, Resource Q); not shown: c-myc, C-terminal, kept; 6X-His, C-terminal, kept
For B1, the stoichiometry N in assay [1] came to 1. For the same molecule, the Ki in assay [2] was 2 nM.
